T1: L-selectin (LS-Rg) (Homo sapiens, UniProt P14151 P14151:39-332)
T1 sequence: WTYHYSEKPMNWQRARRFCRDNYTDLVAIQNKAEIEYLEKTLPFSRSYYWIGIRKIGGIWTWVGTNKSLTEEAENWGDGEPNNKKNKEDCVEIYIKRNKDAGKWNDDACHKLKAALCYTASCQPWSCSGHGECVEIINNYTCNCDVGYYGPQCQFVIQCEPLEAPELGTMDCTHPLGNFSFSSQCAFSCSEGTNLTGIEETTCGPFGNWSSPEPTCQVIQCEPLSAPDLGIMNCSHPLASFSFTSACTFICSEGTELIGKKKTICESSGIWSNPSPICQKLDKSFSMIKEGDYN

B1: PF388 (ssRNA)
RNA: GGGAGACAAGAAUAAACGCUCAACUGGCAACGGGAUAACAACAAAUGUCACCAGCACUAGCGAGACGGAAGGUUCGACAGGAGGCUCACAACAGGC
modifications: 2'-F C and U
B2: PF387 (ssRNA)
RNA: GGGAGACAAGAAUAAACGCUCAACGCACCAGGAACAACGAGAACCAUCAGUAAACGCGAGCGAUUGCAUGUUCGACAGGAGGCUCACAACAGGC
modifications: 2'-F C and U
B3: PF386 (ssRNA)
RNA: GGGAGACAAGAAUAAACGCUCAAACAAGAGAGUCAAACCAAGUGAGAUCAGAGCGUUUAGCGCGGAAAGCACAUUCGACAGGAGGCUCACAACAGGC
modifications: 2'-F C and U
B4: PF416 (ssRNA)
RNA: GGGAGACAAGAAUAAACGCUCAACAGUUCACUCAACCGGCACCAGACUACGAUCAGCAUUGGCGAGUGAACACUUCGACAGGAGGCUCACAACAGGC
modifications: 2'-F C and U
B5: PF417 (ssRNA)
RNA: GGGAGACAAGAAUAAACGCUCAAAAAGACGUAUUCGAUUCGAAACGAGAAAGACUUCAAGUGAGCCCGCAGUUCGACAGGAGGCUCACAACAGGC
modifications: 2'-F C and U
B6: LF1615 (ssRNA)
RNA: GGGAGGACGAUGCGGCGUAACUUCAGCGGUGUGUUAAUCAAGCCUUACGCCAUCUCAGACGACUCGCCCGA
modifications: 2'-F on all C and U
B7: LF1610 (ssRNA)
RNA: GGGAGGACGAUGCGGAGGGUCUUAAGCAGUGUGAUAAUCAAACUACUCUCCGUGUCAGACGACUCGCCCGA
modifications: 2'-F on all C and U
B8: LF1518 (ssRNA)
RNA: GGGAGGACGAUGCGGGCAAAUUGCAUGCGUUUUCGAGUGCUUGCUCAGACGACUCGCCCGA
modifications: 2'-F on all C and U
B9: LF1508 (ssRNA)
RNA: GGGAGGACGAUGCGGGACCCUUAGGCAACGUGUUUUCAAGUUGGUCAGACGACUCGCCCGA
modifications: 2'-F on all C and U
B10: LF1513 (ssRNA)
RNA: GGGAGGACGAUGCGGGCUCUUCAGCAACGUGUUAUCAAGUUAGCCCAGACGACUCGCCCGA
modifications: 2'-F on all C and U
B11: LF1613 (ssRNA)
RNA: GGGAGGACGAUGCGGUGCUAUUCUUAAGCGGCGUGUUUUUCAAGCCAAUAUCAUCAGACGACUCGCCCGA
modifications: 2'-F on all C and U
B12: LF1523 (ssRNA)
RNA: GGGAGGACGAUGCGGUUCUUAAGCAGCGCGUCAAUCGAGCUAACCCAGACGACUCGCCCGA
modifications: 2'-F on all C and U
B13: LF1811 (ssRNA)
RNA: GGGAGGACGAUGCGGUAAUCUCUUAGGCAUCGCGUUAAUCGAGAUAGAUCACCGUCAGACGACUCGCCCGA
modifications: 2'-F on all C and U
B14: LF1514 (ssRNA)
RNA: GGGAGGACGAUGCGGUACCUCAAAUUGCGUGUUUUCAAGCAGUAUCAGACGACUCGCCCGA
modifications: 2'-F on all C and U
B15: LF1807 (ssRNA)
RNA: GGGAGGACGAUGCGGAGUCUUAGGCAGCGCGUUUUCGAGCUACUCCAUCGCCAGUCAGACGACUCGCCCGA
modifications: 2'-F on all C and U
B16: PF377s2 (ssRNA)
RNA: CGCUCAACGAGCCAGGAACAUCGACGUCAGCAAACGCGAGCG
modifications: 2'-F C and U
B17: PF377M3 (ssRNA)
RNA: CUCAACGAGCCAGGAACAUCGACGUCAGCAAACGCGAG
modifications: 2'-F C and U; 2'-OMe G 7,9,14,21,36 and A 8,15,18,22,27,31,37 as listed
B18: PF377s1B (ssRNA)
RNA: B17 RNA
modifications: 2'-F C and U, biotin
B19: PF416s2 (ssRNA)
RNA: CACUCAACCGGCACCAGACUACGAUCAGCAUUGGCGAGUG
modifications: 2'-F C and U
B20: PF377s1F (ssRNA)
RNA: B17 RNA
modifications: 2'-F C and U
B21: PF411 (ssRNA)
RNA: GGGAGACAAGAAUAAACGCUCAACAACCCAACCAUCUAGAGCUUCGAACCAUGGUAUACAAGGGAACACAAAAUUCGCGGAGGCUCCAACAGGCGGC
modifications: 2'-F on all C and U
B22: PF380 (ssRNA)
RNA: GGGAGACAAGAAUAAACGCUCAACGAGCAAAAGUACUCACGGGACCAGGAGAUCAGCAACACGCGAGACGAAAUUCGACAGGAGGCUCACAACAGGC
modifications: 2'-F on all C and U
B23: PF395 (ssRNA)
RNA: GGGAGACAAGAAUAAACGCUCAACGAGCAAGGAACGAAUACAAACCAGGAAACUCAGCAACACGCGAGCAGUAAGAAUUCGACAGGAGGCUCACAACAGGC
modifications: 2'-F on all C and U
B24: PF422 (ssRNA)
RNA: GGGAGACAAGAAUAAACGCUCAACGUCAAGCCAGAAUCCGGAACACGCGAGAAAACAAAUCAACGACCAAUCGAUUCGACAGGAGGCUCACAAAGGC
modifications: 2'-F on all C and U
B25: PF373 (ssRNA)
RNA: GGGAGACAAGAAUAAACGCUCAACGAAUCAGUAAACAUAACACCAUGAAACAUAAAUAGCACGCGAGACGUCUUCGACAGGAGGCUCACAACAGGC
modifications: 2'-F on all C and U
B26: PF378 (ssRNA)
RNA: GGGAGACAAGAAUAAACGCUCAACGAUGAGCGUGACCGAAGCUAUAAUCAGGUCGAUUCACCAAGCAAUCUUAUUCGACAGGAGGCUCACAACAGGC
modifications: 2'-F on all C and U
B27: PF412 (ssRNA)
RNA: GGGAGACAAGAAUAAACGCUCAACGACCACAAUACAAACUCGUAUGGAACACGCGAGCGACAGUGACGCAUUUUCGACAGGAGGCUCACAACAGGC
modifications: 2'-F on all C and U
B28: PF381 (ssRNA)
RNA: GGGAGACAAGAAUAAACGCUCAAAGGAUCACACAAACAUCGGUCAAUAAAUAAGUAUUGAUAGCGGGGAUAUUCGACAGGAGGCUCACAACAGGC
modifications: 2'-F on all C and U
B29: PF396 (ssRNA)
RNA: GGGAGACAAGAAUAAACGCUCAAGCGGUCAGAAACAAUAGCUGGAUACAUACCGCGCAUCCGCUGGGCGAUAUUCGACAGGAGGCUCACAACAGGC
modifications: 2'-F on all C and U
B30: PF377M6 (ssRNA)
RNA: B17 RNA
modifications: 2'-F on all C and U; 2'-OMe purines at 11 positions
B31: PF377M4 (ssRNA)
RNA: B17 RNA
modifications: 2'-F C and U; 2'-OMe G 7,9,13,14,21,24,28,36 and A 8,15,18,22,27,30,31,37 as listed
B32: PF377M1 (ssRNA)
RNA: B17 RNA
modifications: 2'-F C and U; 2'-OMe G7 G9 G14 G21 A8 A15 A18 A22 A27 A31

Biological target: T2, P-selectin (PS-Rg) (Homo sapiens, UniProt P16109 P16109:42-321)
T2 sequence (P16109 42-321, one chain of several): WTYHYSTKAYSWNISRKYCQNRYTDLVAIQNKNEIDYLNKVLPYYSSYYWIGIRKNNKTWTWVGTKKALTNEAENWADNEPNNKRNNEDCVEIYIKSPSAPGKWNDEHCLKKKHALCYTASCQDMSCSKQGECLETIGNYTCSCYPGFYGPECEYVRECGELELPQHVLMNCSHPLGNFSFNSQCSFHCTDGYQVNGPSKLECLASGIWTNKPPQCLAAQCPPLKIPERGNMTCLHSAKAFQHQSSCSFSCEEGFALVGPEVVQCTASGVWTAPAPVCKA
Assay: filter; HSMC, 37 C
Conditions: tags: human IgG Fc fusion; chain copies: 2 (stated dimer)

Row | Binder | Kd [nM]
1 | B1 | 0.09
2 | B2 | 0.016
3 | B3 | 0.0455
4 | B4 | 0.063
5 | B5 | 0.069

Biological target: T1, L-selectin (LS-Rg)
Assay: filter; 37 C, SHMCK-140
Conditions: tags: human IgG2 Fc fusion; chain copies: dimer; label: 32P
Protocol: As described in SELEX Patent Applications, a nitrocellulose filter partitioning method was used to determine the affinity of RNA ligands for LS-Rg and for other proteins. Filter discs (nitrocellulose/cellulose acetate mixed matrix, 0.45 μm pore size, Millipore) were placed on a vacuum manifold and washed with 3 ml of SHMCK 140 buffer under vacuum. Reaction mixtures, containing ³²P labeled RNA pools and unlabeled LS-Rg, were incubated in SHMCK 140 for 10-20 min at 37° C., and then immediately washed with 3 ml SHMCK 140. The filters were air-dried and counted in a Beckman LS6500 liquid scintillation counter without fluor. Alternatively, binding studies employed 96 well micro-titer manifolds essentially as described in Example 13, paragraph E.
These calculations assume two ligand binding sites per chimera.

Row | Binder | Kd [nM]
6 | B6 | 0.32
7 | B7 | 0.53
8 | B8 | 0.42
9 | B9 | 0.5
10 | B10 | 0.16
11 | B11 | 0.034
12 | B12 | 0.25
13 | B13 | 0.19

Same assay, conditions: tags: human IgG2 Fc fusion; chain copies: dimer; label: 32P; hairpin with 7-nt bulge

Row | Binder | Kd [nM]
14 | B14 | 0.13
15 | B15 | 0.034

Biological target: T2, P-selectin (PS-Rg)
Assay: inhibition; sialyl-LewisX
Conditions: tags: human IgG Fc fusion; chain copies: 2 (stated dimer)
Protocol: The ability of evolved RNA pools or cloned ligands to inhibit the binding of PS-Rg to sialyl-Lewis^x was tested in competitive ELISA assays (C. Foxall et al., 1992, supra). For these assays, the wells of Corning (25801) 96 well microtiter plates were coated with 100 ng of a sialyl-Lewis^x/BSA conjugate, air dried overnight, washed with 300 μl of PBS(−) and then blocked with 1% BSA in HSMC for 60 min at room temperature. RNA ligands were incubated with PS-Rg in HSMC/1% BSA at room temperature for 15 min. After removal of the blocking solution, 50 μl of PS-Rg (10 nM) or a PS-Rg (10 nM)/RNA ligand mix was added to the coated, blocked wells and incubated at room temperature for 60 minutes. The binding solution was removed, wells were washed with 300 μl of PBS(−) and then probed with HRP conjugated anti-human IgG, at room temperature to quantitate PS-Rg binding. After a 30 minute incubation at room temperature in the dark with OPD peroxidase substrate (Sigma P9187), the extent of PS-Rg binding and percent inhibition was determined from the OD₄₅₀.

Row | Binder | IC50 [nM]
16 | B16 | 4
17 | B17 | 10
18 | B18 | 3
19 | B19 | 3

Same assay, conditions: tags: human IgG Fc fusion; chain copies: 2 (stated dimer); label: fluorescein (inferred)

Row | Binder | IC50 [nM]
20 | B20 | 3

Biological target: T2, P-selectin (PS-Rg)
Assay: filter; 37 C, HSMC
Conditions: tags: human IgG1 Fc fusion; chain copies: dimer; label: 32P

Row | Binder | Kd [nM]
21 | B21 | 0.013
22 | B22 | 0.0745
23 | B23 | 0.026
24 | B24 | 0.172
25 | B25 | 0.0495
26 | B26 | 0.0515
27 | B27 | 0.45
28 | B28 | 0.0165
29 | B29 | 0.024

Biological target: T2, P-selectin (PS-Rg)
Assay: filter; HSMC
Conditions: tags: human IgG1 Fc fusion; chain copies: dimer

Row | Binder | Kd [nM]
30 | B30 | 0.25

Same assay, conditions: tags: human IgG Fc fusion; chain copies: 2 (stated dimer)

Row | Binder | Kd [nM]
31 | B16 | 0.045
32 | B17 | 0.9
33 | B18 | 0.065
34 | B31 | 1.7
35 | B32 | 0.12
36 | B19 | 0.15

Same assay, conditions: tags: human IgG Fc fusion; chain copies: 2 (stated dimer); label: fluorescein (inferred)

Row | Binder | Kd [nM]
37 | B20 | 0.06
